Drawing on paper PMC9040844, “Escherichia coli Uses a Dedicated Importer and Desulfidase To Ferment Cysteine” (mBio, 2022), this text covers Km for one protein.

As usually defined, the Km is the substrate concentration at which the rate is half of its maximum.

Substrate in this series: N[C@@H](CS)C(=O)O
As to the kind of experiment: purified protein. The following applies: 50 mM Tris pH 7.6, room temperature, anaerobic, Fe(II)/DTT-reactivated [4Fe-4S] enzyme. It is filed as biochemical, Escherichia coli.

B1: CyuA (Escherichia coli K-12) (protein)
chain: MFDSTLNPLWQRYILAVQEEVKPALGCTEPISLALAAAVAAAELEGPVERVEAWVSPNLMKNGLGVTVPGTGMVGLPIAAALGALGGNANAGLEVLKDATAQAIADAKALLAAGKVSVKIQEPCDEILFSRAKVWNGEKWACVTIVGGHTNIVHIETHDGVVFTQQACVAEGEQESPLTVLSRTTLAEILKFVNEVPFAAIRFILDSAKLNCALSQEGLSGKWGLHIGATLEKQCERGLLAKDLSSSIVIRTSAASDARMGGATLPAMSNSGSGNQGITATMPVVVVAEHFGADDERLARALMLSHLSAIYIHNQLPRLSALCAATTAAMGAAAGMAWLVDGRYETISMAISSMIGDVSGMICDGASNSCAMKVSTSASAAWKAVLMALDDTAVTGNEGIVAHDVEQSIANLCALASHSMQQTDRQIIEIMASKAR
notes: full ORF in pET16b, N-terminal His10 tag kept, about 47 kDa; expressed in E. coli SR011 (BL21(DE3) katG katE) with isc operon
Turning to B1, the Km was found to be 200 µM.
